Measured values published in IntAct's records for PubMed 17431395.

Molecular target: T1, goga2_human GOLGA2 (UniProt Q08379)
T1 sequence: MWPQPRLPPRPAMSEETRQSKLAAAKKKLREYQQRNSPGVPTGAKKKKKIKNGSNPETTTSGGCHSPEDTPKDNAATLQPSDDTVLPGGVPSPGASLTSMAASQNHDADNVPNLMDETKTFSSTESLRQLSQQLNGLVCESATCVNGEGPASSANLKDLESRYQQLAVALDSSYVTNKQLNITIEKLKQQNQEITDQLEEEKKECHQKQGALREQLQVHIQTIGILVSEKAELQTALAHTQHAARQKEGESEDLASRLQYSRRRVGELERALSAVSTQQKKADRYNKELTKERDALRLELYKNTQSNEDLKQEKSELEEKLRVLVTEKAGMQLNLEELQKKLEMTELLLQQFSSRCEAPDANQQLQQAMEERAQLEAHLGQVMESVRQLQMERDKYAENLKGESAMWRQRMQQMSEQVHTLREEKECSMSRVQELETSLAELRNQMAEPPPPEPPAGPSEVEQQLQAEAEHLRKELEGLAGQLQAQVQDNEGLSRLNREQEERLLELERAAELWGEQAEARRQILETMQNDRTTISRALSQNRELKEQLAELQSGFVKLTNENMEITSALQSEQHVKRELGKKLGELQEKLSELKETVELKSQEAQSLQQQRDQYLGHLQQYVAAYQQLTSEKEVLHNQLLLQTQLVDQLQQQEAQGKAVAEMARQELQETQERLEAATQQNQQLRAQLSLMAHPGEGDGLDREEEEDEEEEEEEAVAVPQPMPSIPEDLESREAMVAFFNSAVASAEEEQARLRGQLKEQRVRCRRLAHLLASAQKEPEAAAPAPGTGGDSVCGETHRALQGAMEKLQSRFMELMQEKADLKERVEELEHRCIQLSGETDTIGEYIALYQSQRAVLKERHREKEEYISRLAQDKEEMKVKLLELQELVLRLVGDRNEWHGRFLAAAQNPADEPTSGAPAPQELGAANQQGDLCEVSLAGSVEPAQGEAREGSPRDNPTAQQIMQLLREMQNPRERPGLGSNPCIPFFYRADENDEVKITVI

Transthyretin (Homo sapiens) (from UniProt P02766) D38E
effect of a mutation on the interaction: disrupting interaction
